The supplement of paper PMC12764529
± gives the half width of the 95% confidence interval.

What was measured:
[1] = folding stability dG unfold from trypsin proteolysis; higher = more stable
Method in brief: (§1)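 Unfolding free energy was derived, per protease or combined, by relating Bayesian-fitted K50 values from sequencing counts to a sequence-predicted unfolded-state K50 and a shared folded-state K50. The underlying digests exposed cysteine-free mini-proteins under 80 residues, in a PA-tagged cDNA display construct, to trypsin and chymotrypsin at 11 threefold-diluted concentrations and to a no-protease condition. A filter kept only designs with AlphaFold2 dimer inter-PAE above 15.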

[2] = folding stability dG unfold (combined trypsin and chymotrypsin); higher = more stable
Method in brief: as §1

[3] = folding stability dG unfold from chymotrypsin proteolysis; higher = more stable
Method in brief: as §1

Sequence | folding stability dG unfold [1] | folding stability dG unfold [2] | folding stability dG unfold [3]
SAGSITIPIDDPEEMKDQLKNIAENFGMSNQDAEQFKDQLKENIEIHRDGDRWYITIQPPPPPDPGQPPSAG [r5_717_TrROS] | 0.51 ± 0.15 kcal/mol | -0.121 ± 0.47 kcal/mol | -0.145 ± 0.55 kcal/mol
SAGSITITIETLPDGTIRITIPYTSEEEAKKVAEEVAKEIAEKLGEEVIKFEVTPEDDDTLILTIPIKKSAG [r5_772_JUSTAS] | 1.15 ± 0.15 kcal/mol | 1.78 ± 0.28 kcal/mol | 1.81 ± 0.092 kcal/mol
SAGSITTTDGNISRSVTYIPGLNLYLVTSTYPTSVSVDLVTEEGGTLTTTPVSTTPLPLPASSLSTTASAGG [r19_328_JUSTAS] | 0.207 ± 0.059 kcal/mol | 0.0781 ± 0.091 kcal/mol | -0.16 ± 0.15 kcal/mol
SAGSKEEKAKEIAKKLAEELKKKFPDLKIVEVKVVKIEYNKENKEIKITIYVYNKNGKLIKKIEITLPSAGG [r19_53_TrROS_Hall] | 3.58 ± 0.2 kcal/mol | 4.38 ± 0.18 kcal/mol | 4.63 ± 0.11 kcal/mol
SAGSKELVIVEKDEPVEGETLDYTNGKKKKFPKKVPVVKEIVLPKNSPEAEKIAKELSPPNVKVEILAKSAG [r5_468_JUSTAS] | -1.08 ± 0.81 kcal/mol | -0.617 ± 0.32 kcal/mol | -0.322 ± 0.11 kcal/mol
SAGSMEALRALAEELAAEIAAAARAAGREVEVDITEVRPGEVRIRVTTTPPGGERTVEDIEIALPEERLSAG [r5_994_JUSTAS] | 0.934 ± 0.018 kcal/mol | 1.48 ± 0.034 kcal/mol | 1.82 ± 0.026 kcal/mol
SAGSMEPGEVLNVTMTFYDTSGNKLGTVNFTFTDEEEAKKKIEELAKEIKEKLNKNVKVTVEINKSPSLSAG [r5_232_JUSTAS] | 3.5 ± 0.25 kcal/mol | 4.76 ± 0.78 kcal/mol | 4.59 ± 0.23 kcal/mol
SAGSMLSVEEVEVTYNNPETGTPATIKLTVPVFYDPVTGRVEVEVEVEPSPEVPEEVAKEIAEKVKEKRSAG [r14_152_JUSTAS] | -1.26 ± 0.95 kcal/mol | -0.0138 ± 0.35 kcal/mol | 0.494 ± 0.066 kcal/mol
SAGSMSFELTVDYEKLPDGTYRVRATITIYDPNNNNPLKTVDFEGEATSEEEAEARARARAEEVKEAASAGG [r19_255_JUSTAS] | 1.84 ± 0.078 kcal/mol | 2.69 ± 0.17 kcal/mol | 2.942 ± 0.023 kcal/mol
SAGSMVLTEDKEFEVDYVLPDGTRLTEPVKVKVKTTTVFLKNNSSLVLTFTTVTLTDPKGNKVTFSGSVSAG [r5_257_JUSTAS] | 2.31 ± 0.074 kcal/mol | 2.7 ± 0.1 kcal/mol | 2.969 ± 0.018 kcal/mol
SAGSPLTLSEKTSYDPSTGVTTRTFTFPDGTTRTTATVTVPGTGTLLTSTDFTQSPGTLTQSSGVAPLSAGG [r19_394_JUSTAS] | 0.392 ± 0.019 kcal/mol | 0.616 ± 0.025 kcal/mol | 0.706 ± 0.031 kcal/mol
SAGSPVVIKVSKVDSSGNWTLLEEIPIPPSEVSGVELVGDSLKILPPGSGGSYTFTIENSTVTVSIEESAGG [r19_408_JUSTAS] | 0.465 ± 0.038 kcal/mol | 0.933 ± 0.06 kcal/mol | 1.27 ± 0.084 kcal/mol
SAGSRVLTLVFEIPGRPEVVENLPEDVVLPDGARLYRDGERLLLVVEREVPSLPVLDADGRPVGPELLSAGG [r19_148_TrMRF] | 0.4 ± 0.027 kcal/mol | 0.85 ± 0.039 kcal/mol | 1.11 ± 0.056 kcal/mol
SAGSSAVEVDIDEELKEKLKKLIDPDKPIEITRLKTTTNETIILITEKGSGKKYIFTRNKEGKIEIKKSAGG [r19_70_JUSTAS] | 2.07 ± 0.061 kcal/mol | 2.38 ± 0.069 kcal/mol | 2.5 ± 0.065 kcal/mol
SAGSSLNILLELETPEEAEKEAARIKEEIPKKGISVTVTIVSKEELEKLLKENVIELPNGSLKLVLFPSAGG [r19_187_JUSTAS] | 0.201 ± 0.11 kcal/mol | 0.218 ± 0.25 kcal/mol | 0.138 ± 0.19 kcal/mol
SAGSSMLDSLTVDTEVTLDPAKGTVLVKTTTTLPDGTVTRTVTTVTVEPLNPPPPPPPRFDPRTGEALESAG [r5_816_JUSTAS] | 0.79 ± 0.082 kcal/mol | 0.549 ± 0.14 kcal/mol | 0.207 ± 0.15 kcal/mol
SAGSSMSLPLPEEIEIEIPNPGLSLEEIKKIVADKLGLKIVSVEEEEGRLVFKAENGIPIRVKIEEPGKSAG [r5_350_JUSTAS] | 2.35 ± 0.13 kcal/mol | 2.34 ± 0.072 kcal/mol | 2.376 ± 0.013 kcal/mol
SAGSSMSVTIKVTIRSPTRTEEIEITVSPSESLEEAIKKVAEKLPPDYSITITFEGGETVTIPIPKELLSAG [r5_77_JUSTAS] | 1.93 ± 0.1 kcal/mol | 1.58 ± 0.089 kcal/mol | 1.15 ± 0.024 kcal/mol

Sequence | folding stability dG unfold [1] | folding stability dG unfold [2] | folding stability dG unfold [3]
SAGSSSMVLLKVTITFTDPNGTTTTLTYTFDDPSNPEKARAAVEALAAEIKAATGASWTITMTTVPVPGSAG [r14_146_JUSTAS] | 4.59 ± 0.16 kcal/mol | 5.17 ± 0.12 kcal/mol | 5.32 ± 0.066 kcal/mol
SAGSSTPGSEVVRVTSEVSEGESNRTVSYTTYVFEPGGPALRPLSTSTTTVPAAPGVPEGGTKTISLPGSAG [r5_861_JUSTAS] | -0.419 ± 0.064 kcal/mol | -0.534 ± 0.11 kcal/mol | -0.755 ± 0.2 kcal/mol
SAGSSTTLTFPVDTKIPDEKGNPLSSSTVTVTVNPSPGKVTATLTDPATGTVTTVEFGSLEKVEAFLSSSAG [r14_508_JUSTAS] | 1.29 ± 0.042 kcal/mol | 0.809 ± 0.067 kcal/mol | -0.218 ± 0.18 kcal/mol
SAGSSVTAPFSLPSDLVVDSVTYDPDAKTVTVTVTDPRGGRKAVGTFPVWDPNGNPVLSTADSYTFDNPSAG [r5_434_TrMRF] | -0.417 ± 0.03 kcal/mol | -0.128 ± 0.053 kcal/mol | -0.0129 ± 0.058 kcal/mol
SAGSTTRVVELPGNKRVEVEVSTVGDSLTFTITLRDEEGNPVKTLPVAVPDPSLPVEEAIAAAVAAFLASAG [r5_630_JUSTAS] | 3.15 ± 0.049 kcal/mol | 3.68 ± 0.042 kcal/mol | 3.91 ± 0.029 kcal/mol
SAGSYSVTADVTVHPDGTVDVTLTITTNGEDGTTETSTVLPLTLDLPPGTAVTVTVDPNNGTVTVTVEASAG [r5_179_JUSTAS] | 3.01 ± 0.14 kcal/mol | 3.89 ± 0.079 kcal/mol | 4.14 ± 0.058 kcal/mol
SAGTIAKEIAEKLGLPGLKVKDVKFEPDPDGPIKEIEITVEFPNGRYWKIDIRYDPGNIVIDIEPVPPSAGG [r19_392_TrROS] | 1.98 ± 0.056 kcal/mol | 2.17 ± 0.1 kcal/mol | 2.29 ± 0.029 kcal/mol
SAGTIKELLEKLPGFSVEVDPDDGTVWVMFRMPDHYVMIEIPIDKEDGNIKGIRIHRHDPNGEPKPIPLSAG [r5_367_TrROS] | 1.44 ± 0.038 kcal/mol | 1.44 ± 0.12 kcal/mol | 1.19 ± 0.22 kcal/mol
SAGTIREALDNPKNKRVVIMIMIPPEDFPPGDPERYRERAREMANGIMGWFRERGLDVKIEIEIMYMPWSAG [r5_408_TrROS] | 2.38 ± 0.044 kcal/mol | 2.65 ± 0.079 kcal/mol | 2.77 ± 0.03 kcal/mol
SAGTITADDITEIEMQWDPGNGYVQIEIEFPNGYTVNAWMPNDKIEIEVWYPNGKKVEIEFEIKPPGASAGG [r19_121_TrROS] | 1.72 ± 0.22 kcal/mol | 2.39 ± 0.38 kcal/mol | 2.74 ± 0.18 kcal/mol
SAGTLTLELEVEVDGVLVRVRVEVRPGEEVEVRVEVEVRELPPEPEVEEEEKVELSEEDLERLRRLAEESAG [r5_958_TrROS_Hall] | 2.46 ± 0.071 kcal/mol | 3.05 ± 0.1 kcal/mol | 3.4 ± 0.086 kcal/mol
SAGTVSSSFDPATGTLTITRTTSPDETVDLTLNVEVPETPATVAKVDSGGPVEGDEPVTITVELTDLKPSAG [r5_737_JUSTAS] | 0.222 ± 0.075 kcal/mol | -0.152 ± 0.24 kcal/mol | -0.522 ± 0.42 kcal/mol
SAGVISPTDPTTTTTTEVRESEDGTTTTVSTVTYPGTGSTMTVTTTTTHDPSTGTSTVTSTTTTDPSASAGG [r19_342_JUSTAS] | 1.57 ± 0.086 kcal/mol | 1.08 ± 0.059 kcal/mol | 0.394 ± 0.029 kcal/mol
SAGVLTIEVQMPADDAEEFAEEVADTIARRLGFPPGFKIKVKVDRFDPDNGYVRVEATIEFPLPPNQPPSAG [r5_537_TrROS] | 2.61 ± 0.12 kcal/mol | 2.43 ± 0.099 kcal/mol | 2.19 ± 0.059 kcal/mol
SAGVTLKLPFVLPGGLGVDEIEVRSLPGGRVEARLRLKGDPRYYVVARFYVLPGGRLVITDVRVRREDESAG [r14_705_TrMRF] | 3.75 ± 0.095 kcal/mol | 3.54 ± 0.082 kcal/mol | 3.22 ± 0.031 kcal/mol
SAGVVEELLKEFPDVEKVTSSSYPGPKVSQYVIYFPTPSGKKVTIKITVTQPRLPSNSTTSELSIELNDSAG [r5_398_JUSTAS] | 2.11 ± 0.12 kcal/mol | 2.08 ± 0.38 kcal/mol | 2.25 ± 0.12 kcal/mol
SAGVVEITFEVPETGEPFTLVIDEDGNVTGRWPSTGDEQEWKLGDKVITFPPNMSPELAAELEKEALSESAG [r14_561_TrMRF] | 0.66 ± 0.053 kcal/mol | 0.644 ± 0.18 kcal/mol | 0.587 ± 0.25 kcal/mol
SAGVVVERTVTRTVPKDSATKEKIIEEIKASMPGMKVKEVEVLSETPLPDGSIVVTVKLTIERPPDVLESAG [r5_682_JUSTAS] | 3.23 ± 0.11 kcal/mol | 2.98 ± 0.11 kcal/mol | 2.88 ± 0.092 kcal/mol
